Measurements as given in the supplement of paper PMC10567573.

B1: KRT71 (parent)
chain: FGSRSLYSLGGVRSLNVASGSGKS

Variants of: B1
Test: protein stability index of a GFP-peptide fusion (GPS, HEK-293T) (PSI 1-6); higher = more stable
Details: c terminus: a fixed tail appended
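Also: lentivirally expressed fusions sorted by FACS into six bins by GFP to DsRed ratio, PSI derived from sequencing read proportions per bin multiplied by bin number.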

Protein stability index, by site and new letter:
R13: Y 1.7
S14: A 1.59 | C 1.58 | D 1.92 | E 2.66 | F 1.89 | G 2.04 | H 2 | I 1.38 | K 1.81 | L 2.04 | M 1.65 | N 2.38 | P 1.71 | Q 1.86 | R 1.5 | T 1.74 | V 1.03 | W 1.44 | Y 2.36
L15: A 2.35 | C 2.35 | D 1.61 | E 2.15 | F 1.77 | G 1.88 | H 1.37 | I 1.7 | K 1.99 | M 2.18 | N 2.33 | P 2.02 | Q 2.51 | R 2.28 | S 1.92 | T 1.92 | V 2.07 | W 1.34 | Y 2.62
N16: A 1.93 | C 1.97 | D 2.38 | E 1.73 | F 2.22 | G 1.1 | H 2.21 | I 1.29 | K 2.02 | L 1.73 | M 1.83 | P 2.04 | Q 2.44 | R 2.07 | S 2.15 | T 1.47 | V 2.06 | W 2.95 | Y 2.16
V17: A 1.91 | C 2.31 | D 2.13 | E 1.59 | F 2.17 | G 1.91 | H 1.97 | I 1.94 | K 2.01 | L 2.5 | M 2.38 | N 1.83 | P 1.92 | Q 1.97 | R 1.7 | S 1.92 | T 2.52 | W 1.86 | Y 2.07
A18: C 1.73 | D 1.62 | E 2.11 | F 1.9 | G 2.1 | H 2.39 | I 1.39 | K 2.63 | L 2.27 | M 2.95 | N 2.81 | P 2.2 | Q 1.78 | R 2.46 | S 2.65 | T 1.62 | V 1.88 | W 2.87 | Y 2.94
S19: A 1.8 | C 1.47 | D 1.89 | E 1.98 | F 1.47 | G 1.67 | H 1.53 | I 1.44 | K 2.23 | L 1.47 | M 1.88 | N 2.38 | P 1.8 | Q 2.03 | R 1.92 | T 2.06 | V 2.54 | W 2.85 | Y 1.89
G20: A 1.96 | C 1.54 | D 2.18 | E 1.49 | F 2.04 | H 1.67 | I 1.72 | K 1.5 | L 1.55 | M 1.49 | N 1.82 | P 2 | Q 1.87 | R 1.97 | S 1.87 | T 2.16 | V 1.92 | W 1.82 | Y 1.87
S21: A 1.83 | C 1.49 | D 2.04 | E 1.92 | F 1.73 | G 1.91 | H 2.11 | I 2.18 | K 2.06 | L 2.11 | M 1.87 | N 1.69 | P 2.07 | Q 2.29 | R 2.5 | T 1.93 | V 1.41 | W 1.24
G22: A 1.53 | C 1.69 | D 2.15 | E 2.83 | F 1.49 | H 2.75 | I 1.57 | K 1.73 | L 1.64 | M 1.93 | N 2.27 | P 1.89 | Q 2.09 | R 2.48 | S 1.93
